Measured values taken from patent US20220120736A1, “METHODS AND ASSAYS FOR MODULATING GENE TRANSCRIPTION BY MODULATING CONDENSATES” (Whitehead Institute for Biomedical Research, priority 2018, published 2022).

Test system: WNT-responsive reporter gene
Assay: Luciferase assay with synthetic WNT-reporter (10 copies of TCF/LEF motif)
Assay type: cell-based
Settings: overexpression in HEK293T cells
Method: (FIG. 56A) Schematic of the ChIP experiment. TdTomato-tagged wild type or aromatic mutant β-catenin were stably integrated in mES cells under a doxycycline-inducible promoter. Doxycycline was added to the media 24 hours prior to crosslinking. ChIP was preformed using antibodies against TdTomato. TRE=Tetracycline responsive element. (FIG. 56B) (Top) ChIP-qPCR of ectopically-expressed wild type or aromatic mutant β-catenin at Myc, Sp5, and Klf4 enhancers. Error bars indicate standard deviation of three replicates. Stars indicate p-values obtained by a t-test <0.05. (Bottom) RT-qPCR of mRNA levels after ectopic expression of wild type or aromatic mutant β-catenin of Myc, Sp5, and Klf4. Error bars indicate standard deviation of three replicates. Stars indicate p-values obtained by a t-test <0.05. (FIG. 56C) Luciferase assay using a synthetic WNT-reporter containing 10 copies of the consensus TCF/LEF motif were wild type or aromatic mutant β-catenin was overexpressed in HEK293T cells. Average of 3 biological replicates is shown. Error bars show the standard deviation. Star indicates p-value obtained by a t-test <0.05.
We independently tested the ability of the β-catenin aromatic mutant to transactivate a WNT-responsive reporter gene in a luciferase assay with wild type and mutant forms of β-catenin (FIG. 56C).

- increase in luciferase activity: 8 fold
B1: wild type β-catenin: wild type β-catenin overexpressed in HEK293T cells (protein, UniProt P35222 2-781, looked up)
Catenin beta-1: ATQADLMELDMAMEPDRKAAVSHWQQQSYLDSGIHSGATTTAPSLSGKGNPEEEDVDTSQVLYEWEQGFSQSFTQEQVADIDGQYAMTRAQRVRAAMFPETLDEGMQIPSTQFDAAHPTNVQRLAEPSQMLKHAVVNLINYQDDAELATRAIPELTKLLNDEDQVVVNKAAVMVHQLSKKEASRHAIMRSPQMVSAIVRTMQNTNDVETARCTAGTLHNLSHHREGLLAIFKSGGIPALVKMLGSPVDSVLFYAITTLHNLLLHQEGAKMAVRLAGGLQKMVALLNKTNVKFLAITTDCLQILAYGNQESKLIILASGGPQALVNIMRTYTYEKLLWTTSRVLKVLSVCSSNKPAIVEAGGMQALGLHLTDPSQRLVQNCLWTLRNLSDAATKQEGMEGLLGTLVQLLGSDDINVVTCAAGILSNLTCNNYKNKMMVCQVGGIEALVRTVLRAGDREDITEPAICALRHLTSRHQEAEMAQNAVRLHYGLPVVVKLLHPPSHWPLIKATVGLIRNLALCPANHAPLREQGAIPRLVQLLVRAHQDTQRRTSMGGTQQQFVEGVRMEEIVEGCTGALHILARDVHNRIVIRGLNTIPLFVQLLYSPIENIQRVAAGVLCELAQDKEAAEAIEAEGATAPLTELLHSRNEGVATYAAAVLFRMSEDKPQDYKKRLSVELTSSLFRTEPMAWNETADLGLDIGAQGEPLGYRQDDPSYRSFHSGGYGQDALGMDPMMEHEMGGHHPGADYPVDGLPDLGHAQDLMDGLPPGDSNQLAWFDTDL
